Assay results from doi:10.1101/2025.03.22.644726.

Experiments:
HERC5 HECT domain [1] = molecular target: HERC5 HECT domain (UniProt Q9UII4); assay: SEC
HERC5 HECT domain [2] = molecular target: HERC5 HECT domain (UniProt Q9UII4); assay: SAXS

HERC5 HECT domain, sequence (Q9UII4 702-1024): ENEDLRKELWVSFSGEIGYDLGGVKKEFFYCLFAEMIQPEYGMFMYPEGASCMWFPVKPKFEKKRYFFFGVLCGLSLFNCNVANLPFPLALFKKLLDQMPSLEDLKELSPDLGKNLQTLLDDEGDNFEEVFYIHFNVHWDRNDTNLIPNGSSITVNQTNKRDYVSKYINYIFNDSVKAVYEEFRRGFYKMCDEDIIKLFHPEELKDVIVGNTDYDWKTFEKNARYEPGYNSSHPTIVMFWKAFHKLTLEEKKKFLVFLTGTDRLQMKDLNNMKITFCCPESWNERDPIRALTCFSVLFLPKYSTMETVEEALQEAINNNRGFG

For “HERC5 HECT domain (from UniProt Q9UII4 702-1024) (domain or fragment)”, the stoichiometry N (HERC5 HECT domain [1]) was 3 and the stoichiometry N (HERC5 HECT domain [2]) was 3.
